Experimental data published in patent WO2023028914A1 (dated 2023).

Biological target: T1, human Her3-His recombinant protein (human, UniProt P21860 20-643)
T1 construct: Recombinant His-tagged human Her3; not shown: His tag
Experiment: BLI (Fortebio Octet 96e), antibody loaded on AMC sensor, human Her3-His 100-3.13 nM in solution

T1 sequence (P21860 20-643 limits assumed): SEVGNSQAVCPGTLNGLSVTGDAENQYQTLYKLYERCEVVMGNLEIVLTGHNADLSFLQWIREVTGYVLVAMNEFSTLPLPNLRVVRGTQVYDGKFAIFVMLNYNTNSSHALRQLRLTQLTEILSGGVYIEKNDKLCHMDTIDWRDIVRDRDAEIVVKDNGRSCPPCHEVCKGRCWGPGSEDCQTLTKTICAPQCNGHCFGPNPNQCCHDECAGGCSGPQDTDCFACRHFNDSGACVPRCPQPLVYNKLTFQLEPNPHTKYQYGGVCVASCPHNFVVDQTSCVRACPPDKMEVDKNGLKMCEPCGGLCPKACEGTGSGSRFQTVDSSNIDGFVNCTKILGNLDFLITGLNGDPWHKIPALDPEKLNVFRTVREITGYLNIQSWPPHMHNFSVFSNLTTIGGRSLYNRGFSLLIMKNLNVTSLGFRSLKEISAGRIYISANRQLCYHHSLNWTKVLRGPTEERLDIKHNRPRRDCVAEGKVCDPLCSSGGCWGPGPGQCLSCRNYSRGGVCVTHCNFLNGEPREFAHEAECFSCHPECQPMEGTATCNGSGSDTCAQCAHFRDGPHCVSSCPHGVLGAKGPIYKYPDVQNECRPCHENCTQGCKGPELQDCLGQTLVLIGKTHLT

B1: monoclonal antibody 2F8 (antibody, V domains shown)
VH: QVQLQQWGAGLLKPSETLSLTCAVYGGSFSGYYWSWIRQPPGKGLEWIGEINHSGSTNYNPSLKSRVTISVETSKNQFSLKLSSVTAADTAVYYCARDKWTWYFDLWGRGTLVTVSS
VL: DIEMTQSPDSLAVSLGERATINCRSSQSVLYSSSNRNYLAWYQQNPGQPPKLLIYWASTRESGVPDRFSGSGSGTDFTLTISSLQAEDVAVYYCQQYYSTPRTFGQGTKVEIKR
notes: also called 2F8-new; parental molecule 2F8
For B1, the Kd was 2.43 nM, the koff was 0.000357 s⁻¹ and the kon was 147000 M⁻¹ s⁻¹.

B2: antibody 3F5 (light chain mutant 2F8-Lm1 combined with heavy chain 2F8-H-new) (antibody, human IgG1, kappa, V domains shown)
VH: B1 VH
VL: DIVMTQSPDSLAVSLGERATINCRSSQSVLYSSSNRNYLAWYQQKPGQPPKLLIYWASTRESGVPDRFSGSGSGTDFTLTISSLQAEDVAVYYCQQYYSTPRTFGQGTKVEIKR
notes: also called 2F8-m1; 3F5 mutant
B2 was tested, and the Kd was 2.53 nM, the koff was 0.000393 s⁻¹ and the kon was 156000 M⁻¹ s⁻¹.
